The data set in a line: yeast display, Sf9 membrane polyspecificity reagent, FACS + sequencing; frameworks hold sequencing errors. In short, it runs like this: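 Galactose induction of a Saccharomyces cerevisiae BJ5465 synthetic nanobody display library ran 36–48 hours. The cells were then stained for 1 hour at 4 °C with 10% biotinylated, detergent-solubilized Sf9 membrane reagent, pulled down on streptavidin microbeads and FACS-sorted into low and high (top ~1%) gates on expression and reagent-binding fluorescence. Labels for polyreactivity follow the gate of origin.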
Take “QVQLVESGGGLVQAGGSLRLSCAASGRILRHNAMGWYRQAPGKERELVAAITRSGGRTYYADSVKGRFTISRDNAKNTVYLQMNSLKPEDTAVYDCAAGDYGWVPYNLRGSRMNYWGQGTQVTVSS”: the “polyreactivity (PSR sort gate)” value is listed as “high polyreactivity”. To “QVQLVESGGGLVQAGGSLRLSCAASGRILRQYAMGWYRQEPGKERELVAAISRSGASTFYADSVKGRFTISRDNAKNTVYLPMNSLKPEYTAVYYCASKRYLKYGYWGQGTQVTVSS” belongs “high polyreactivity”; to “QVQLVESGGGLVQAGGSLRLSCAASGRILRTYAMGWYRQAPGKERELVAAITRGGSTYYADSVKGRFTISRDNAKNTVYLQMNSLKPEDTAVYYCNKYKSPYITLSQYGYWGQGTQVTVSS”, “high polyreactivity”. Consider “QVQLVESGGGLVQAGGSLRLSCAASGRILRYKAMGWYRQAPGKDRELVAAMSSGGSTYADSVKGRFTISRDNAKNTVYLQMNSLKPEDTAVYYCAVQSTRRGPYSWPYGYWGQGTQVTVSS”, for which the “polyreactivity (PSR sort gate)” value was “high polyreactivity”. With “QVQLVESGGGLVQAGGSLRLSCAASGRILRYNAMGWYRQAPGKERELVASISGNGGSTYYADSVKGRFTISRDNAKNTVYLQMNSLKPEDTAVYYCNKYYYSSRGQKEYDYWGQGTQVTVSS”, the “polyreactivity (PSR sort gate)” value is “low polyreactivity”. In the case of “QVQLVESGGGLVQAGGSLRLSCAASGRILRYYAMGWYRQAPGKERELVASITSGGSTYYADSVKGRFTISRDNAKNTVYLQMNSLKQEDTAVYYCAADPVYLKKLLYYVGQAYYYWGQGTQVTVSS”, the “polyreactivity (PSR sort gate)” value is “high polyreactivity”. As to “QVQLVESGGGLVQAGGSLRLSCAASGRILSVYAMGWYRQAPGKERELDAGISKRGGRTYYADSVKGRFTISRDNAKNTVYLQMKSLTPEDTAVYYCAADYSSYWGRDYWGQGTQVTVSS”, the “polyreactivity (PSR sort gate)” value was “high polyreactivity”. As for “QVQLVESGGGLVQAGGSLRLSCAASGRILSYYAMGWYRQAPGKERELVATISASGGSTYYADSVKGRFTISRDNAKNTVYLQMNSLKPEDTAVYYCAAARVPAYYLRYFYRTTYDYWGQGTQVTVSS”, the “polyreactivity (PSR sort gate)” value is listed as “high polyreactivity”.

Regarding “QVQLVESGGGLVQAGGSLRLSCAASGRILTPYTMGWYRQAPGKERELVAAISKRGTSTHYADSVKGRFTISRDNAKNTVYLLMNSLKPEDTAVYYCNAVYRSSQYDYWGQGTQVTVSS”, the “polyreactivity (PSR sort gate)” value is on record as “high polyreactivity”. Take “QVQLVESGGGLVQAGGSLRLSCAASGRILTSNAMGWSRQAPGKERELVAAISWSGGSTYYADSVKGRFTISRDNAKNTVYLQMNSLKPEDTAVYYCAAPFTTTFDYWGQGTQVTVSS”: the “polyreactivity (PSR sort gate)” value was “low polyreactivity”. In the case of “QVQLVESGGGLVQAGGSLRLSCAASGRILVRNAMGWYRQAPGKERELVAAIRRGTSTNYADSVKGRFTISRDNAKNTVYLQMNSLKPEDTAVYYCAVRAASPYLDGAWRRRYDYWGQGTQVTVSS”, the “polyreactivity (PSR sort gate)” value is “low polyreactivity”. To “QVQLVESGGGLVQAGGSLRLSCAASGRILYDYDMGWYRQAPGKERELVATISRGGGTNYADSVKGRFTISRDNAKNTVYLQMNSLKPEDTAVYYCAADRWYSRYTRYGYWGQGTQVTVSS” belongs “low polyreactivity”; to “QVQLVESGGGLVQAGGSLRLSCAASGRILYGYAMGWYRQAPGKERELVASIPWSGGSTYADSVKGRFTISRDNAKNTVYLQMNSLKPEDTAVYYCATRRGPKWQWLTYGYWGQGTQVTVSS”, “low polyreactivity”; to “QVQLVESGGGLVQAGGSLRLSCAASGRILYGYTMGWYRQAPGKEREFVATITRGGSTYYADSVKGRFTISRDNAKNTVYLQMNSLKPEDTAVYYCAAELSLATPTVPWYLYNYWGQGTQVTVSS”, “low polyreactivity”. “QVQLVESGGGLVQAGGSLRLSCAASGRILYIYAMGWYRQAPGKERELVAAIRSSGGSTYYADSVKGRFTISRDNAKNSVYLQMNSLKPDDTAVYYCAATSRVSKSHLYGYWGQGTQVTVSS”: the “polyreactivity (PSR sort gate)” value was “high polyreactivity”. To “QVQLVESGGGLVQAGGSLRLSCAASGRILYLYTMGWYRQAPGKERELVAAISRGGSTYYADSVKGRFTISRDNAKNTVYLQMNSLKPEDTAVYYCSADARGYQFNYWGQGTLVTVSS” belongs “high polyreactivity”.

Values taken from the nanobody polyreactivity screen of Harvey et al. (2022).
